Literature values as cited in PMC4712107.
Read-outs that look alike come from different tables or passages of the source.

Assays:
[1] = molecular target: CRF-BP (Homo sapiens) (UniProt P24387)
[2] = molecular target: CRF-BP (Homo sapiens) (UniProt P24387); remark: listed apart in the source

UniProt P24387, sequence (P24387 25-322): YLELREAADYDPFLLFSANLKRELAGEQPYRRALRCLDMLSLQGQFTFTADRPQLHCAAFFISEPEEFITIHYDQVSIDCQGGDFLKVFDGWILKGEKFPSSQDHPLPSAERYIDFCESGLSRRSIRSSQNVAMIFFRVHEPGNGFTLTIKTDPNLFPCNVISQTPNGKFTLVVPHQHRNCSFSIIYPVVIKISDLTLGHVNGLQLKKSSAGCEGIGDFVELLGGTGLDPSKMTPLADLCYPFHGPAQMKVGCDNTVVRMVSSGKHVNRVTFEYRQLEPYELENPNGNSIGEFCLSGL

Row | Substance | Kd [1] [nM] | Kd [2] [nM]
1 | CRF (from UniProt P06850) | < 1 | 
2 | Urocortin 1 (from UniProt P55089) |  | < 1
